# Source: patent publication US11707511B2, “Vaccine compositions and methods of using the same” (The Board of Supervisors of Louisiana State University and …, priority 2017, dated 2023)
# “Also recorded” adds a separate entry of the source.
# Experiments:
# [1] = tested on: medically important Candida spp; test: DC-based immunization with universal peptides, coverage of medically important Candida spp; format: in vivo; settings: in words
# Description: Novel universal peptides as described herein can be excellent peptide vaccines against C. ablicans infection.
# C. albicans = test: Active immunization with peptide-pulsed dendritic cells, disseminated candidiasis caused by C. albicans in mice; format: in vivo, Candida albicans
# Protocol: (§1) Active Immunizations with peptide pulsed dendritic cells. […] It allows us to perform rapid throughput evaluation of candidate short peptides. When protective double universal peptide conjugate(s) become identified by this study, immunization approaches suitable for human use will be applied in further studies. All active vaccinations were conducted as previously described (6,7,9). DCs were pulsed in vitro with universal peptide as described before with minor modification by totally removing CFA for last booster (6). Briefly, DCs in culture were pulsed with the peptide antigen (1 μM) on day 6. On day 7, PGE2 (10^-7M) was added along with LPS (2 μg/ml, Sigma) for 24 h to induce DC maturation. On day 9, antigen-pulsed DCs were washed extensively and […] in 200 μl DPBS were given by intraperitoneal (i.p.) route as the priming dose to mice. The mice were boosted i.p. at day 14 and day 28 with fresh antigen-pulsed DCs without adjuvant.
# Table 2 lists universal peptide vaccines that induced protection against disseminated candidiasis caused by C. albicans in mice. The universal peptide vaccines listed in Table 1 are expressed at high homology by all analyzed medically important Candida species in addition to C. albicans (see details at Table 2). By dendritic cell (DC) based immunization approach as described herein, each of the universal peptide vaccines was able to protect mice against disseminated candidiasis caused by C. albicans, with the survival rate 80-100% up to 80-120 days post challenge.
# (§2) To perform rapid throughput evaluation of peptide vaccine candidates, immunizations were done by use of the similar antigen-pulsed DC based vaccine strategy with modification by totally removing CFA from vaccine formula. Fba peptide was used as positive control.
# [2] = tested on: C. tropicalis (ATCC 20336); test: Peptide-vaccinated mice challenged with lethal dose of C. tropicalis; format: in vivo
# Protocol: as §1
# Peptide-vaccinated mice were challenged with lethal dose of live C. tropicalis cells (ATCC 20336; i.v. challenge dose: 1×10^6/mouse).
# [3] = Induction of specific anti-peptide antibody responses in immunized mice; format: in vivo; settings: BALB/c mice; peptide-pulsed DC; data not shown
# Description: as §2
# The double chimeric peptide conjugate vaccines have been tested for their abilities to induce specific anti-peptide antibodies and protective immunity against the disease caused by C. albicans. […] The enhancement in vaccine efficacy was evidenced by both increased survival and reduced or non-detectable fungal burden (colony forming units, CFUs) in kidneys of animals.
# C. albicans 3153A = test: Passive transfer of mAbs or mAb cocktails i.p. before lethal i.v. challenge, mouse model of human disseminated candidiasis; format: in vivo, Candida albicans; settings: Table 14; for Protection of adsorbed mAb: mAb removed by absorption with Candida cells before transfer; for Protection / Protection (grade word): single mAb, C. albicans
# Protocol: Passive transfer of MAbs by intraperitoneal (i.p.) route. The preventive effect of peptide-specific mAbs listed in Table 3 and Table 4 in naïve mice was examined by passive transfer experiments. […] For testing, mice received 0.5 ml of each mAb or 1 ml of two mAbs in combination (0.5 ml of each) intraperitoneally. […] The negative control materials tested in mice were single mAb or DPBS. Control mice received 0.5 ml of the DPBS diluents or single mAb treatment. For each condition, 6- to 8-week-old female BALB/c mice (NCI) were given 0.5 ml of test mAb, or 1 ml two mAb cocktails or control materials intraperitoneally, followed 4 h later by 0.1 ml intravenously of defined lethal dose of yeast cells per milliliter of DPBS. Mice were divided into groups with five mice each and three independent experiments were carried out. In some experiments, mice were given the same dose of mAbs or control materials on every other day post-challenge for two weeks, as compared to the protective efficacy of mAb in combinations. All mice were sacrificed on day 50. For animal groups that were challenged non-albicans candida species, determined optimal challenge doses were applied for each candida strain.
# The hybridoma clones that produce the universal peptide specific mAbs listed above were generated from mice vaccinated with peptide-pulsed dendritic cell (DC) preparation as described previously (6). The isotype of mAb was determined with a Mouse Monoclonal Antibody Isotyping Kit (Pierce, USA). […] In detail, BALB/c mice were given an i.p dose of each mAb four hours before hematogenous challenged with a lethal dose of C. albicans3153A cells. […] Importantly, passive protection was prevented by removal of the mAbs by absorption with Candida cells before transfer, which provided strong additional evidence for the protection being due to the mAb.
# The three cell wall proteins were selected because of expression during human candidiasis and cell wall association, and included fructose-bisphosphate aldolase (Fba); methyltetrahydropteroyltriglutamate-homocysteine methyltransferase (Met6); hyphal wall protein-1 (Hwp1). The hybridoma clones listed at Table 5, which produce the peptide specific mAbs, were generated from mice vaccinated with peptide-pulsed dendritic cell (DC) preparation as described previously (6). The isotype of mAb was determined with a Mouse Monoclonal Antibody Isotyping Kit (Pierce, USA). […] Importantly, passive protection was prevented by removal of the mAbs by absorption with Candida cells before transfer, which provided strong additional evidence for the protection being due to the mAb).
# The preventive effect of each universal peptide-specific mAb was examined by passive transfer experiments. […] For testing, 5 mice of each tested group received 0.5 ml of each mAb intraperitoneally. The negative control materials tested in mice were mAbs absorbed with C. albicans yeast cells (3153A) and DPBS. Control mice received 0.5 ml of the DPBS diluents or adsorbed mAb solution. For each condition, 6- to 8-week-old female BALB/c mice (NCI) were given 0.5 ml of test mAb, or control materials intraperitoneally, followed 4 h later by 0.1 ml intravenously of a suspension containing lethal dose of Candida cells per milliliter of DPBS. Mice were divided into groups with five mice each and three independent experiments were carried out. We have developed neutropenic murine models of disseminated infection by C. glabrata, C. tropicalis and C. parapsilosis. To induce neutropenia, naïve mice received a 200 mg/kg dose of cyclophosphamide (CY) by i.p. on day −3. Prolonged neutropenia were maintained for 30-50 days by giving each animal a 150 mg/kg dose of CY by i.p. every 10 days after infection.
# C. auris AR-0386 = test: Passive transfer of mAbs or two mAbs in combination in A/J mouse model of invasive C. auris infection; format: in vivo, Candida auris
# Protocol: A. Complement protein C5-defecient A/J mice were treated with one of the five mAb or with DPBS as a vehicle control. The following day, mice were challenged with 1×10^8 C. auris cells/100 ul DPBS dose per mouse. […] B. Fungal burdens in the kidneys (top), heard (center), and brain (bottom).
# Identified protective mAbs were obtained by use of standard hybridoma technique and purified by use of protein A/G. A/J mice were given an i.p. dose of either single mAb or two mAbs in combination 24 hours before hematogensous challenge with a lethal dose (2×108) of C. auris AR-0386 live cells. Mice received either 9G2F5 alone or 6H1G8 alone or 9F2G5 and 3H7E3 in combination had 40% survival rate respectively, with prolonged survival as compared to control animals that received DPBS buffer control.
# Evaluation and validation of a panel of peptide-specific monoclonal antibodies (mAbs) as a passive immunization strategy protect against invasive C. auris infection in established A/J mouse model of human disease.
# The monoclonal antibodies used in this experiment were: • 6H1G8 (IgG2b), α-Hwp1 (Hyphal wall protein) • 3E2G2 (IgG2b), α-Fba (Fructose bisphosphate aldolase) • 10E7E2 (IgG1), α-GPV-P3 (General peptide vaccine 3 from Phosphoglycerate kinase) • 9F2G5 (IgG2a), α-Pgk1 (Phosphoglycerate kinase) • 3H7E3 (IgG1), α-Met6 (Methyltetrahydropteroyltriglutamate)
molecule,measurement,setting,value
AILGGSKVSDKI (CAILGGSKVSDKI) [GPV-P1],coverage against medically important Candida spp,[1],able to provide broad coverage
FAIPAINVTSSSTVVAALE [Fba3],protection against disseminated candidiasis caused by C. albicans,"C. albicans; FIG. 2, antigen-pulsed DC vaccine without CFA",good protective responses
same,CFUs in kidneys as compared to controls,C. albicans; FIG. 2 B and D,reduced or non-detectable CFUs
same,survival,"[2]; FIG. 3A, i.v. challenge 1×10^6/mouse, up to 80 days",80%
same,live fungal cells (CFU) in kidneys as compared to controls,"[2]; FIG. 3B, p<0.001",significantly reduced live fungal cells
same,specific antibody responses,[3],able to induce specific antibody responses
FWVNPDCGLKTR (CFWVNPDCGLKTR; (1)..(1) May or may not be present) [GPV-M1],coverage against medically important Candida spp,[1],able to provide broad coverage
IVIIGGGDTATVAKK (CIVIIGGGDTATVAKK; (1)..(1) May or may not be present) [GPV-P3],coverage against medically important Candida spp,[1],able to provide broad coverage
PAINVTSSSTVVAALEAA [FbaU2],specific antibody responses,[3],able to induce specific antibody responses
SSSTVVAAL [Fba4],specific antibody responses,[3],able to induce specific antibody responses
TTTIGSFPQTKDIR (CTTTIGSFPQTKDIR; (1)..(1) May or may not be present) [GPV-M2],coverage against medically important Candida spp,[1],able to provide broad coverage
"6H1G8: IgG2b mAb of hybridoma 6H1G8, specific for Hwp1 peptide (antibody) heavy: EVQLQQSGPELVKPGASVKISCKASGYSITGYYMHWVKQSHVKSLEWIGRINPYTGATSYTQNFKDKASLTVDKSSSTAYMELLSLKSEDSAVYYCAKGGGRSSYWYFDVWGAGTAVTVSSAKTTPPSVYPLAPGCGDTTGSSVTLGCLVKGYFPESVTVTWNSGSLSSSVHTFPALLQSGLYTMSSSVTVPSSTWPSQTVTCSVAHPASSTTVDKKLEPSGPISTINPCPPCKECHKCPAPNLEGGPSVFIFPPNIKDVLMISLTPKVTCVVVDVSEDDPDVQISWFVNNVEVHTAQTQTHREDYNSTIRVVSTLPIQHQDWMSGKEFKCKVNNKDLPSPIERTISKIKGLVRAPQVYILPPPAEQLSRKDVSLTCLVVGFNPGDISVEWTSNGHTEENYKDTAPVLDSDGSYFIYSKLNMKTSKWEKTDSFSCNVRHEGLKNYYLKKTISRSPGK light: DIQMTQTTSSLSASLGDRVTISCSASQAISNYLNWYQQKPDGTIKLLIYYTSSLHSGVPSRFSGSGSGTDYSLTISNLEPEDIATYYCQQYSKLPWTFGGGTKLEIKRADAAPTVSIFPPSSEQLTSGGASVVCFLNNFYPKDINVKWKIDGSERQNGVLNSWTDQDSKDSTYSMSSTLTLTKDEYERHNSYTCEATHKTSTSPIVKSFNRNEC",Protection of adsorbed mAb,C. albicans 3153A,None
same,Protection,C. albicans 3153A,(70-80%)
same,Protection (grade word),C. albicans 3153A,High
same,fungal burdens in targeted organs,"C. auris AR-0386; A/J mouse model, in words",lowest fungal burdens in all organs; also recorded: able to almost clear fungal burden
same,protection against C. auris invasive infection,"C. auris AR-0386; A/J mouse model, in words",protect against C. auris invasive infection; also recorded: best protection
same,survival,"C. auris AR-0386; FIG. 15A, A/J mice, 1×10^8 C. auris cells, experiment terminated 40 days post challenge",50%
same,fungal burden in the kidneys,"C. auris AR-0386; FIG. 15B, one treated mouse",Non-detectible levels of fungal burden
same,fungal burden in the heart and brain,"C. auris AR-0386; FIG. 15B, several mice",non-detectible levels of fungal burden
same,survival rate,"C. auris AR-0386; FIG. 16, A/J mice, mAb(s) i.p. 24 hours before lethal dose (2×108) of C. auris AR-0386",40%
"2B10C1: IgG1 mAb of hybridoma 2B10C1, specific for Met6 peptide; VH SEQ ID NO: 60, VL SEQ ID NO: 62 (antibody, V domains shown) VH: MGWSYIILFLLATATRVHSQVQLQQPGAEVVRPGASVKVSCKASGYTVSSYWMSWVKQRPEQGLEWIGRIDPYDSETHYNQKFKDKAILTVDKSSSTAYMQLSSLTSEDSAVYYCARTAASFDYWGQGTTLTVSS VL: MKLPVRLLVLMFWIPASSSDVVMTQTPLSLPVSLGDQASISCRSSQSLVHSNGNSYLHWYLQKPGQSPKLLIYKVSNRFSGVPDRFSGSGSGTDFTLNISRVEAEDLGVYFCSQSTHVPFTFGSGTKLEIK",Protection of adsorbed mAb,C. albicans 3153A,None
same,Protection,C. albicans 3153A,(80-100%)
same,Protection (grade word),C. albicans 3153A,High
same,Protection against C. auris,"C. auris AR-0386; Table 19, A/J strain mice",60-90%
same,Protection against C. auris (grade word),"C. auris AR-0386; Table 19, A/J strain mice",High
